Data as given in the DeepSol protein solubility set.

Assay: soluble on expression in E. coli; label from the status in PepcDB or PDB records

Sequence | soluble on expression in E. coli
MGSDKIHHHHHHMLKIGKRNPNKPLVIENDQVVSLYFDARGVQSTMLRHDPYALALGYTRTMMGFLLFRPSPCRISMIGLGGGSLAKYCYRHLPDTAITAIEINPDVIALRDHFHVPRDDGRFTVVCADGAQYVAVPGHRPDVLLVDGFNADGLPARLGSSAFYEACRRRLSDDGVLVANLVTDEPDFHRYLRALWEVFAGAVALAPSEGSEHNVTVFAWKGAGGLPSFAAMLDRARALQARHAVNLHATATRIEYGKKFNWSRYGRTA | not soluble
MELNDMAQFNEPISSQLLAIDENLTQLVTDIDILSSVNPLNYAQERERFISNKYSQEPNFQYQKAPLDTHQSKRRLYELPLEHIEDTQLQKLYEDVIQSYADKLDQVNTIGTQEFLYNSLRYYGEPSAKDIANAHFILHLPTEEESKPEHDSRSIAHFMQSFADKNGYECEIQILDGMLANALVSGSRVKINSAAHITTDELEALAHHEMGVHLLTTLNGRQQPLKVLSLGCPANTNTQEGLAILCEYLSGHFSIKRLRTLALRVLAVESMIKERDFRHTFMLLKEQYKASDVQAFTITSRVYRGGGLTKDYLYLRGFREVLNAYDKLGDDFSLLLCGKTELKYFDLIRSLVNKGIFTQPKFISPALSTPKQTNPIHRYIVSALKLEHHHHHH | soluble
MLVAAILVGCGRDAPPPAAPVALDKTFLADTAAWREARLKELRAPDGWTSLVGLHWLSLKAHYIGSSADSGIKLAVGPPKMGMVSTENNAVWFVPERGAALTLDGKPLTSRIRFQSDRDPQPTLIHFDDGKGVLSLIHRGDRYALRVKHADASSRTHFAGLDYWPLDASWRINARYVPNAVGKTIPIVDIVGISSEQPNAGAIEFERDGKTFRLETIGEPGRAMFVVFADRTSGHGSYPAGRFLDLDVPDASGHVMVDFNRAYNPPCAFTPFATCPLPPPENRIDLAVSAGEKAYKVPHLEHHHHHH | soluble
SYYHHHHHHLESTSLYKKAGLMSTPLQGIKVLDFTGVQSGPSCTQMLAWFGADVIKIERPGVGDVTRHQLRDIPDIDALYFTMLNSNKRSIELNTKTAEGKEVMEKLIREADILVENFHPGAIDHMGFTWEHIQEINPRLIFGSIKGFDECSPYVNVKAYENVAQAAGGAASTTGFWDGPPLVSAAALGDSNTGMHLLIGLLAALLHREKTGRGQRVTMSMQDAVLNLCRVKLRDQQRLDKLGYLEEYPQYPNGTFGDAVPRGGNAGGGGQPGWILKCKGWETDPNAYIYFTIQEQNWENTCKAIGKPEWITDPAYSTAHARQPHIFDIFAEIEKYTVTIDKHEAVAYLTQFDIPCAPVLSMKEISLDPSLRQSGSVVEVEQPLRGKYLTVGCPMKFSAFTPDIKAAPLLGEHTAAVLQELGYSDDEIAAMKQNHAI | soluble
MHHHHHHHHHHISSASGESQMSLDEIEDVYHTRPGYRPEEYRWGQGGAKIIDYHIQSAGVDFPPSLTGNQQTDFLMKVVFEYDFDCVVPGILIKTLDGLFLYGTNSFLASEGRENISVSRGDVRVFKFSLPVDLNSGDYLLSFGISAGNPQTDMTPLDRRYDSIILHVTKSMDFWGVIDLKSSFTSYQ | soluble
SNVRATYTVIFKNASGLPNGYDNWGWGCTLSYYGGAMIINPQEGKYGAVSLKRNSGSFRGGSLRFDMKNEGKVKILVENSEADEKFEVETISPSDEYVTYILDVDFDLPFDRIAFQDAPGNGDRIWIKNLVHSTGSADDFVDPINLEHHHHHH | soluble
MAHHHHHHMGTLEAQTQGPGSMVNWNALRSKAIEVSRHAYAPYSGFPVGAAALVDDGRTVTGCNVENVSYGLGLCAECAVVCALHSGGGGRLVALSCVGPDGGVLMPCGRCRQVLLEHGGPELLIDHAHGPRPLRELLPDAFGPDDLGRR | soluble
MSLDKVERRLYELYEKAINYEPLSKEEALYILEVDDIYVPFLVHLAQKIKKHYFPENEVEFCSIINAKSGACSEDCKFCAQSKYYKTPINVYNLVPVDEMVEGAIRGVEFGANRYCIVLSGKSATKEEVERITEAVKEIKNEGLPINVCVSAGTLDEESLKKLKEAGVKRINHNLETSRNFFKNIVTTHTWEDRYETIKRIKKVGLSTCSGGIFGMGESNEDRVDMALTYRELEVDSIPLNFLMPIEGTPMENAPGVEVMEALKIIAMFRFTNPKAELRLCGGREQNLRDFHGMATLMTNAMMVGGYLTRAGRDIKKDYQLLKDLKAKRKVSVEEGHHHHHH | soluble
